The values that follow come from PMC11140114, “Nanobodies as novel tools to monitor the mitochondrial fission factor Drp1” (Life Science Alliance, 2024).

For experiment [1], the target named is recombinant human dynamin-related protein 1 (Drp1), isoform 1 (Homo sapiens, isoform 1, UniProt O00429).
For experiment [2], the target named is T1, GFP-labelled Drp1 deletion construct GTPase-MD (Homo sapiens, UniProt O00429).
T1 construct: Drp1 (DNM1L), human; source: HEK293, transiently transfected, soluble protein fraction
In words: pull-down; domain mapping: D7 or D63 nanotrap (Nb on NHS-sepharose) incubated overnight at 4°C with soluble protein fractions of HEK293 cells transiently expressing GFP-labelled Drp1 constructs; immunoblot with anti-GFP. Conditions: one partner purified. For orientation: In western blotting, separated proteins are transferred to a membrane and probed.

Experiment [3] has as its target T2, GFP-labelled Drp1 deletion construct GTPase (Homo sapiens, UniProt O00429).
T2 construct: Drp1 (DNM1L), human; also called N-terminal GTPase domain; source: HEK293, transiently transfected, soluble protein fraction
Described as above. Conditions: one partner purified.

The target in experiment [4] is T3, GFP-labelled Drp1 deletion construct GTPase-MD-VD (Homo sapiens, UniProt O00429).
T3 construct: Drp1 (DNM1L), human; source: HEK293, transiently transfected, soluble protein fraction
The experiment is described as above. Conditions: one partner purified.

Experiment [5] deals with T4, Drp1 isoform 2, endogenous in HeLa cells (Homo sapiens (HeLa), UniProt O00429-3, strain).
T4 construct: also called isoform 2 of Drp1; source: endogenous, HeLa soluble protein fraction
Briefly: affinity purification with mass spectrometry; D7 and D63 nanotraps against GFP-Trap, soluble protein fractions of HEK293, HeLa and U2OS cells, three replicates; label-free quantification; Drp1 captured by the immobilised Nb. The conditions noted are these: one partner purified.

recombinant human dynamin-related protein 1 (Drp1), isoform 1, sequence (O00429 whole entry, canonical isoform): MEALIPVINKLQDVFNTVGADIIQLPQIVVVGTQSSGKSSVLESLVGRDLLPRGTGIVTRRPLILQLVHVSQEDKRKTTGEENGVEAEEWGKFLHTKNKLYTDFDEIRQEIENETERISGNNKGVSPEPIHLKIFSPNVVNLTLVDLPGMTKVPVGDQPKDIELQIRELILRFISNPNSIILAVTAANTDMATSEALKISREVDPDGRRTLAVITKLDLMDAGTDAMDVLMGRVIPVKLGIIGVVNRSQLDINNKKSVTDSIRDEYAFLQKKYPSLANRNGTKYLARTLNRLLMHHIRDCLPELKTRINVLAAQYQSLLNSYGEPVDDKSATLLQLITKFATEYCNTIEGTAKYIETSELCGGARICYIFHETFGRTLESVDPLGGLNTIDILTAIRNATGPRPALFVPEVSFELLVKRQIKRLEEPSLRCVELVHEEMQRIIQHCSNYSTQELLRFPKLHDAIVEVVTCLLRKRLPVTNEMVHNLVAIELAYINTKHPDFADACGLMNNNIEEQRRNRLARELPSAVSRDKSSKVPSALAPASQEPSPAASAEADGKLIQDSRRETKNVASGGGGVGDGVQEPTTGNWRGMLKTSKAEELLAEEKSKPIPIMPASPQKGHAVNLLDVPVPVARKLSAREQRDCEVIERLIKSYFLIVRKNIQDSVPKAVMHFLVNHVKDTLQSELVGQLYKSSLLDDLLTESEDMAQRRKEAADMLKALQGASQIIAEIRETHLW

B1: D219 (VHH)
chain: QVQLVESGGGMVQSGGSLSLSCAASGFAFSLYEMSWIRQAQGRGPEWVASINPGSSRTYYTDSVKGRFTISRDNDKNILYLKMNSLKPEDTALYYCARGRTLGIGISSDKGSQVTVSS
Consider B1, for which, in experiment [1], the binding result was “binds”.

B2: D246 (VHH)
VHH: EVQLVESGGGLAQPGGSLRLSCAASGPTDNIYTMGWYRQPPGQSRQFVASVVWSTGVKAYAKFVGGRFRITKDSAKRTVDLQMDSLQPEDTAIYFCNLNDRVTPMSERDYWGQGTPVTVSS
B2: the binding result in experiment [1] is “binds”.

B3: D193 (VHH)
VHH: EVQLVDSGGGLVQSGGSLTLACAASVSIDEFPAMTWYRQATGKQRELVGVITKGGATKLADSAKGRFTISRDNAKNMVYLQMTSLKPDDTAVYYCSVPNKVMGWGPDDWWGQGSQVTVSS
For the molecule B3, in experiment [1], the binding result is “binds”.

B4: D49 (VHH)
VHH: EVQLVESGGGWVQPGGSLRLSCSASGFTFRDYVMTWVRQTPGRGLEWVSAIDGSGSKINYLDSVKGRFTISRDNTQAMLYLQMNSLRPDDTAVYYCARKGRGGLGEGTYWGKGTQVTVSS
Consider B4, for which, in experiment [1], the binding result is reported as “binds”.

B5: D258 (VHH)
VHH: EVQLQESGGESVQPGGSLRLSCVVSGTTFSTVAMGWYREVPGKKRELVARISSRGVTFYSDSVEGRFTISKDNDKSTLYLQMNSLETEDTAMYFCAAAGNSEVVLFRPKYWGQGTPVTVSS
As to B5, the binding result in experiment [1] is listed as “binds”.

B6: D187 (VHH)
VHH: HVQLVESGGGLVQAGESLKLSCVASGIPFSSRAMGWYRQTPGKDRELVARISVRGVTFYADSVTGRFAISRDNDRSTLYLQMNSLKSEDTAIYFCAAGDNTQTVLTRPAHWGQGTQVTVSS
B6: the binding result in experiment [1] is recorded as “binds”.

B7: Drp1-specific nanobody D7 (VHH)
VHH: QVQLVESGGGLVQPGGSLRLSCVASGFDFSTYSMTWHRQVLGKERELVASITPGGSRTNVADSVKGRFTISRDNAKNMLYLQMDRLKPEDTGMYYCAQGGYYAEPDYWGKGTRVTVSS
notes: Selected by phage display from an immunised alpaca; also called D7 Nb; D7 nanotrap (immobilised on NHS-sepharose); source: E. coli periplasmic extract for the protein ELISA
Regarding B7, the binding result in experiment [2], in experiment [3], in experiment [4] and in experiment [5] was “binds” throughout.

B8: Drp1-specific nanobody D63 (VHH)
VHH: QVQLVESGGDLVQPGGSLKLSCAVSGVSDSLSSFYLMAWHRQAPGKQREMIADIVSGKATYADSVKGRFTISRDNAENTAYLQMNSLKPEDTAVYYCNVLIQNRSTFQSYWGQGTQVTVSS
notes: Selected by phage display from an immunised alpaca; also called D63 Nb; D63 nanotrap (immobilised on NHS-sepharose); source: E. coli periplasmic extract for the protein ELISA
For the molecule B8, in experiment [5], the binding result was “binds”.
